Results reported in publication PMC5725826, “Characterization of UGT716A1 as a Multi-substrate UDP:Flavonoid Glucosyltransferase Gene in Ginkgo biloba” (Frontiers in Plant Science, 2017).

T1: UGT92K1 (Ginkgo biloba, UniProt A0A2Z2PC79)
T1 construct: gene UGT7
T1 sequence (A0A2Z2PC79 1-496): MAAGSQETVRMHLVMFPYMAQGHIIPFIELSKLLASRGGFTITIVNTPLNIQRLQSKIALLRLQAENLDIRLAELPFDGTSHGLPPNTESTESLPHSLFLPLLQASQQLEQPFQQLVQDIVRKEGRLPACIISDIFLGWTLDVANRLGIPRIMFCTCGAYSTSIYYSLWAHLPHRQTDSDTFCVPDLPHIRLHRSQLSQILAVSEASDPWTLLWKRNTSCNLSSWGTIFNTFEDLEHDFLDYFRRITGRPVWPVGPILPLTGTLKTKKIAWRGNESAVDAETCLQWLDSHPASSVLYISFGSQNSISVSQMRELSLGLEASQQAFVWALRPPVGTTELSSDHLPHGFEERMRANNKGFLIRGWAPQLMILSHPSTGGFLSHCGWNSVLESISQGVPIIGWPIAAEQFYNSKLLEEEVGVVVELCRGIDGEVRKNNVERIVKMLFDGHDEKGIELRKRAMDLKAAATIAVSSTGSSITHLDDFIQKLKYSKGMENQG

B1: UGT716A1 (Ginkgo biloba) (protein)
chain: MEMAGGYIMVVPFHGQGHVFPCLELCKQLAARGVAVTIVASRSIRSSLQSIANHDASGLGVRIMELREATSEEQDAHPGPFLTDTLQEPFEEMLNNLAAEAAPLPLCVIGDVMVGWVTTVCDKFHIPRVPFFTSSACSIAFEYALWKHRPLDLKEDEAFAVPGFPESMPIALSDTLHRAPHPPDHHQRNPPPFPRRGHPPPPDRGHPPPFGHGGPPHGPPHPPTGPDSNPRSPPWMNGLNESSGFLVNTCRELEAPFIEYMVKETEKPVWAVGPLLPSSFWEGSITHDSSFRSRKSNIDEKQCLEWLNSKPPASVLYVSFGSEVGPSEEEIRELAYGLEAAQKPFIWVLQAGHHHPHHQEEAEEQDLLPAGFEHRLEGRGLIIRGWAPQLLILSHPSTGGFLSHCGWNSTVESIGHGVPLLAWPIRGDQHYNAKLLVAELKVAAMIHMPKDDGMVRREEIAKGVDVLLGSEHGEKLRERAVSLKLRLASCSGSSQKMLDAFVVHLSSLQKKL

Experiments:
UGT92K1 = target: T1, UGT92K1; assay: HPLC glucosylation assay, product identified with authentic standard; type: biochemical; conditions: 100 μM substrate; 4 mM UDP-glucose; Tris-HCl pH 7.0; 30°C; product genistein 7-O-glucoside
purified protein [1] = substrate: O=c1cc(-c2ccc(O)cc2)oc2cc(O)cc(O)c12; assay: purified protein; conditions: 4 mM UDP-glucose, Tris-HCl pH 7.0, 30°C
purified protein [2] = substrate: O=C(O[C@@H]1Cc2c(O)cc(O)cc2O[C@H]1c1cc(O)c(O)c(O)c1)c1cc(O)c(O)c(O)c1; assay: purified protein; type: biochemical, Ginkgo biloba; conditions: 4 mM UDP-glucose, Tris-HCl pH 7.0, 30°C
purified protein [3] = substrate: O=c1cc(-c2ccc(O)c(O)c2)oc2cc(O)cc(O)c12; assay: purified protein; type: biochemical, Ginkgo biloba; conditions: 4 mM UDP-glucose, Tris-HCl pH 7.0, 30°C
purified protein [4] = substrate: COC(=O)c1cc(O)c(O)c(O)c1; assay: purified protein; type: biochemical, Ginkgo biloba; conditions: 4 mM UDP-glucose, Tris-HCl pH 7.0, 30°C
purified protein [5] = substrate: O=c1c(O)c(-c2ccc(O)c(O)c2)oc2cc(O)cc(O)c12; assay: purified protein; type: biochemical, Ginkgo biloba; conditions: 4 mM UDP-glucose, Tris-HCl pH 7.0, 30°C
purified protein [6] = substrate: O=c1c(-c2ccc(O)cc2)coc2cc(O)cc(O)c12; assay: purified protein; type: biochemical, Ginkgo biloba; conditions: 4 mM UDP-glucose, Tris-HCl pH 7.0, 30°C
purified protein [7] = substrate: O=C(O[C@@H]1Cc2c(O)cc(O)cc2O[C@H]1c1ccc(O)c(O)c1)c1cc(O)c(O)c(O)c1; assay: purified protein; type: biochemical, Ginkgo biloba; conditions: 4 mM UDP-glucose, Tris-HCl pH 7.0, 30°C
purified protein [8] = substrate: O=C(O[C@@H]1Cc2c(O)cc(O)cc2O[C@@H]1c1cc(O)c(O)c(O)c1)c1cc(O)c(O)c(O)c1; assay: purified protein; type: biochemical, Ginkgo biloba; conditions: 4 mM UDP-glucose, Tris-HCl pH 7.0, 30°C

Row | Molecule | HPLC glucosylation assay, product identified with authentic standard (UGT92K1) | Km (purified protein [1]) | Km (purified protein [2]) | Km (purified protein [3]) | Km (purified protein [4]) | Km (purified protein [5]) | Km (purified protein [6]) | Km (purified protein [7]) | Km (purified protein [8])
1 | O=c1c(-c2ccc(O)cc2)coc2cc(O)cc(O)c12 [genistein] | recombinant UGT92K1 protein only displayed activity toward genistein |  |  |  |  |  |  |  | 
2 | B1 |  | 230 µM | 3.2 µM | 28 µM | 390 µM | 10 µM | 310 µM | 14 µM | 43 µM
